Here are results for 19 molecules from patent publication US20240059759A1.

Values joined by “and” are separate entries in the source; they are usually repeats but may differ in a detail not shown here. Equal entries are not always repeated. Where two headings read alike, the source gives them in different places.

Assay [1] has as its target CoV-2 (SARS-CoV-2).
Assay [2] has as its target CoV-2 (SARS-CoV-2). The source holds these as a separate data set.
Assay [3] concerns the target CoV-2 (SARS-CoV-2). This is another data set of the same source.
The target of assay [4] is SARS-CoV-2 Spike RBD-His Tag, Sino Biological (SARS-CoV-2).
Assay [5] shares this target. The source holds these as a separate data set.
Assay [6] shares this target. The source holds these as a separate data set.
Assay [7] shares this target. This is another data set of the same source.
The target in assay [8] is CoV-2 (SARS-CoV-2). This is another data set of the same source.
Assay [9] concerns the target CoV-2 (SARS-CoV-2). The source holds these as a separate data set.
The target of assay [10] is CoV-2 (SARS-CoV-2). The source holds these as a separate data set.
Assay [11] deals with SARS-CoV-2 Spike RBD-His Tag, Sino Biological (SARS-CoV-2). This is another data set of the same source.
Assay [12] shares this target. This is another data set of the same source.
Assay [13] shares this target. This is another data set of the same source.
Assay [14] shares this target. This is another data set of the same source.
Assay [15] shares this target. The source holds these as a separate data set.
Assay [16] has the same target. The source holds these as a separate data set.
Assay [17] deals with CoV-2 (SARS-CoV-2). This is another data set of the same source.
Assay [18] addresses CoV-2 (SARS-CoV-2). The source holds these as a separate data set.
The target in assay [19] is SARS-CoV-2 Spike RBD-His Tag, Sino Biological (SARS-CoV-2). This is another data set of the same source.
The target is the same in assay [20]. The source holds these as a separate data set.
Assay [21] shares this target. The source holds these as a separate data set.
The target is the same in assay [22]. The source holds these as a separate data set.
Assay [23] has the same target. The source holds these as a separate data set.

B1: vhh_tstrep_sars2_pjl1_L_1 (VHH)
VHH: QVQLQESGGGLVQAGGSLRLSCAASGRTFSEYAMGWFRQAPGKEREFVATISWSGGSTYYTDSVKGRFTISRDNAKNTVYLQMNSLKPDDTAVYYCGAAGLGTVVSEWDYDYDYWGQGTQVTVSS
Consider B1, for which the results for the xmid (log10) with CoV-2 (SARS-CoV-2) [1], in the assay with CoV-2 (SARS-CoV-2) [2] and in the assay with CoV-2 (SARS-CoV-2) [3] were 0.839, 0.321 and 0.903, respectively.

B2: vhh_tstrep_sars2_pjl1_L_75 (VHH)
VHH: QVQLQESGGGLVQAGGSLRLSCAASGRTFSEYAMGWFRQAPGKEREFVATISWSGGATYSTDSVKGRFTISRDNAKNTVYLQMNSLKPDDTAVYYCAAAGLGTVVSEWDYDYDYWGQGTQVTVSS
B2: the xmid (log10) in assay [4] is 0.0467; in assay [5], -0.0338.

B3: vhh_tstrep_sars2_pjl1_L_115 (VHH)
VHH: QVQLQESGGGLVQAGGSLRLSCAASGRTFSEYAMGWFRQAPGKEREFVATISWSGGATYHTDSVKGRFTISRDNAKNTVYLQMNSLKPDDTAVYYCAAADLGTVVSEWDYDYDYWGQGTQVTVSS
For B3, the xmid (log10) in [6] is 0.0337; in [7], -0.277.

B4: vhh_tstrep_sars2_pjl1_L_4 (VHH)
VHH: QVQLQESGGGLVQAGGSLRLSCAASGRTFSEYAMGWFRQAPGKEREFVATISWSGGSTYYTDSVKGRFTISRDNAKNTVYLQMNSLKPDDTAVYYCAAGGLGTVVSEWDYDYDYWGQGTQVTVSS
For B4, the xmid (log10) is 0.752 with CoV-2 (SARS-CoV-2) [1], -0.0058 in the assay with CoV-2 (SARS-CoV-2) [2] and 0.673 in the assay with CoV-2 (SARS-CoV-2) [8].

B5: vhh_tstrep_sars2_pjl1_L_35 (VHH)
VHH: QVQLQESGGGLVQAGGSLRLSCAASGRTFSEYAMGWFRQAPGKEREFVATISWSGGSTYYTDSVKGRFTISRDNAKNTVYLQMNSLKPDDTAVYYCAGAGLGTVVSEWDYDYDYWGQGTQVTVSS
In the case of B5, the xmid (log10) is 0.355 with CoV-2 (SARS-CoV-2) [9], 0.231 with CoV-2 (SARS-CoV-2) [3] and -0.501 with CoV-2 (SARS-CoV-2) [10].

B6: vhh_tstrep_sars2_pjl1_L_114 (VHH)
VHH: QVQLQESGGGLVQAGGSLRLSCAASGRTFSEYAMGWFRQAPGKEREFVATISWSGGATYHTDSVKGRFTISRDNAKNTVYLQMNSLKPDDTAVYYCAPAGLGTVVSEWDYDYDYWGQGTQVTVSS
In the case of B6, the xmid (log10) in assay [11] came to 0.263; in assay [12] it was 0.526.

B7: vhh_tstrep_sars2_pjl1_L_144 (VHH)
VHH: QVQLQESGGGLVQAGGSLRLSCAASGRTFSEYAMGWFRQAPGKEREFVATSSWSGGATYHTDSVKGRFTISRDNAKNTVYLQMNSLKPDDTAVYYCAAAGLGTVVSEWDYDYDYWGQGTQVTVSS
As for B7, the figures for the xmid (log10) in assay [13] and in assay [14] were 0.491 and -0.0515, respectively.

B8: vhh_tstrep_sars2_pjl1_L_76 (VHH)
VHH: QVQLQESGGGLVQAGGSLRLSCAASGRTFSEYAMGWFRQAPGKEREFVATISWSGGATYETDSVKGRFTISRDNAKNTVYLQMNSLKPDDTAVYYCAAAGLGTVVSEWDYDYDYWGQGTQVTVSS
For B8, the xmid (log10) in assay [15] is -0.368; in assay [5], -0.184.

B9: vhh_tstrep_sars2_pjl1_L_82 (VHH)
VHH: QVQLQESGGGLVQAGGSLRLSCAASGRTFSEYAMGWFRQAPGKEREFVATISWSGGATYYTDSVKGRFTISRDNAKNTVYLQMNSLKPDDTAVYYCAAAELGTVVSEWDYDYDYWGQGTQVTVSS
On to B9, for which the xmid (log10) in assay [15] was 0.109; in assay [16], 0.155.

B10: vhh_tstrep_sars2_pjl1_L_47 (VHH)
VHH: QVQLQESGGGLVQAGGSLRLSCAASGRTFSEYAMGWFRQAPGKEREFVATISWSGGSTYYTDSVKGRFTISRDNAKNTVYLQMNSLKPDDTAVYYCAAAGLGTVVSEWDYDADYWGQGTQVTVSS
For the molecule B10, the results for the xmid (log10) with CoV-2 (SARS-CoV-2) [1], with CoV-2 (SARS-CoV-2) [9] and with CoV-2 (SARS-CoV-2) [17] were 1.45, 0.716 and -0.708, respectively.

B11: vhh_tstrep_sars2_pjl1_L_27 (VHH)
VHH: QVQLQESGGGLVQAGGSLRLSCAASGRTFSEYAMGWFRQAPGKEREFVATISWSGGSTYYTDSVKGRFTISRDNAKNTVYLQMNSLKPDDTAVYYCAAAGLATVVSEWDYDYDYWGQGTQVTVSS
Turning to B11, the xmid (log10) with CoV-2 (SARS-CoV-2) [8] was found to be 0.407; with CoV-2 (SARS-CoV-2) [17], 0.178; with CoV-2 (SARS-CoV-2) [18], 0.577.

B12: vhh_tstrep_sars2_pjl1_L_81 (VHH)
VHH: QVQLQESGGGLVQAGGSLRLSCAASGRTFSEYAMGWFRQAPGKEREFVATISWSGGATYYTDSVKGRFTISRDNAKNTVYLQMNSLKPDDTAVYYCAAARLGTVVSEWDYDYDYWGQGTQVTVSS
Take B12: the xmid (log10) in [15] was 1.06; in [16], 0.479.

B13: vhh_tstrep_sars2_pjl1_L_139 (VHH)
VHH: QVQLQESGGGLVQAGGSLRLSCAASGRTFSEYAMGWFRQAPGKEREFVATISWSGGATYHTDSVKGRFTISRDNAKNTVYLQMNSLKPDDTAVYYCAAAGLGTVVSEWDYDFDYWGQGTQVTVSS
B13 returned a xmid (log10) in [19] of 0.366.

B14: vhh_tstrep_sars2_pjl1_L_150 (VHH)
VHH: QVQLQESGGGLVQAGGSLRLSCAASGRTFSEYAMGWFRQAPGKEREFVATISWSGGAGYHTDSVKGRFTISRDNAKNTVYLQMNSLKPDDTAVYYCAAAGLGTVVSEWDYDYDYWGQGTQVTVSS
Take B14: the figures for the xmid (log10) in [12] and in [14] were 0.171 and 0.879, respectively.

B15: vhh_tstrep_sars2_pjl1_L_112 (VHH)
VHH: QVQLQESGGGLVQAGGSLRLSCAASGRTFSEYAMGWFRQAPGKEREFVATISWSGGATYHTDTVKGRFTISRDNAKNTVYLQMNSLKPDDTAVYYCAAAGLGTVVSEWDYDYDYWGQGTQVTVSS
Regarding B15, the xmid (log10) was -1.14 in [11] and -1.27 in [12].

B16: vhh_tstrep_sars2_pjl1_L_80 (VHH)
VHH: QVQLQESGGGLVQAGGSLRLSCAASGRTFSEYAMGWFRQAPGKEREFVATISWSGGATYYTRSVKGRFTISRDNAKNTVYLQMNSLKPDDTAVYYCAAAGLGTVVSEWDYDYDYWGQGTQVTVSS
Turning to B16, the xmid (log10) in [4] was -0.61; in [16], -0.743.

B17: vhh_tstrep_sars2_pjl1_L_85 (VHH)
VHH: QVQLQESGGGLVQAGGSLRLSCAASGRTFSEYAMGWFRQAPGKEREFVATISWSGGATYYTDSVKGRFTISRDNAKNTVYLQMNSLKPDDTAVYYCAAAGLETVVSEWDYDYDYWGQGTQVTVSS
B17: the figures for the xmid (log10) in assay [15] and in [16] were -0.815 and -1.05, respectively.

B18: vhh_tstrep_sars2_pjl1_L_113 (VHH)
VHH: QVQLQESGGGLVQAGGSLRLSCAASGRTFSEYAMGWFRQAPGKEREFVATISWSGGATYHTDSVKGRFTISRDNAKNTVYLQMNSLKPDDTAVYYCAAAGLGTVVSEWDFDYDYWGQGTQVTVSS
In the case of B18, the xmid (log10) was -0.0032 in [11] and 0.334 in assay [20].

B19: vhh_tstrep_sars2_pjl1_L_77 (VHH)
VHH: QVQLQESGGGLVQAGGSLRLSCAASGRTFSEYAMGWFRQAPGKEREFVATISWSGGATYHTDSVKGRFTISRDNAKNTVYLQMNSLKPDDTAVYYCAAAGLGTVVSEWDYDYDYWGQGTQVTVSS
Turning to B19, the xmid (log10) in [6] was -1.92; in [13] it was -1.6; in [4] it was -1.42; in assay [21], -1.54; in [5], -1.22; in [22] it was -1.49. Further, the xmid (log10) was -1.66 and -1.72 in assay [19]; -1.54 in assay [23]; -1.54 in [7].
